The values below are quoted from earlier work in patent US20240139347A1, “COMPLEX, VASCULAR CONTRAST AGENT, X-RAY CONTRAST AGENT, METHOD FOR PRODUCING COMPLEX, AND IMAGING METHOD FOR CAPTURING STRUCTURAL CHANGE IN VESSEL” (TOHOKU UNIVERSITY, priority 2021, published 2024).

For the data set the following is noted: Y. Nojima et al., Pharm. Res. 26 (2009).

B1: lactoferrin: lactoferrin (MW: 80 kDa), protein used in the complex of Example 1 (protein, UniProt P02788 20-710, looked up)
Lactotransferrin: GRRRSVQWCAVSQPEATKCFQWQRNMRKVRGPPVSCIKRDSPIQCIQAIAENRADAVTLDGGFIYEAGLAPYKLRPVAAEVYGTERQPRTHYYAVAVVKKGGSFQLNELQGLKSCHTGLRRTAGWNVPIGTLRPFLNWTGPPEPIEAAVARFFSASCVPGADKGQFPNLCRLCAGTGENKCAFSSQEPYFSYSGAFKCLRDGAGDVAFIRESTVFEDLSDEAERDEYELLCPDNTRKPVDKFKDCHLARVPSHAVVARSVNGKEDAIWNLLRQAQEKFGKDKSPKFQLFGSPSGQKDLLFKDSAIGFSRVPPRIDSGLYLGSGYFTAIQNLRKSEEEVAARRARVVWCAVGEQELRKCNQWSGLSEGSVTCSSASTTEDCIALVLKGEADAMSLDGGYVYTAGKCGLVPVLAENYKSQQSSDPDPNCVDRPVEGYLAVAVVRRSDTSLTWNSVKGKKSCHTAVDRTAGWNIPMGLLFNQTGSCKFDEYFSQSCAPGSDPRSNLCALCIGDEQGENKCVPNSNERYYGYTGAFRCLAENAGDVAFVKDVTVLQNTDGNNNEAWAKDLKLADFALLCLDGKRKPVTEARSCHLAMAPNHAVVSRMDKVERLKQVLLHQQAKFGRNGSDCPDKFCLFQSETKNLLFNDNTECLARLHGKTTYEKYLGPQYVAGITNLKKCSTSPLLEACEFLRK
For B1, the “half-life in blood of lactoferrin alone” value was “about 7.8 min”.
